The test addresses T1, human receptor activator of nuclear factor-κB (RANK) (human, UniProt Q9Y6Q6 30-212).
T1 sequence (looked up): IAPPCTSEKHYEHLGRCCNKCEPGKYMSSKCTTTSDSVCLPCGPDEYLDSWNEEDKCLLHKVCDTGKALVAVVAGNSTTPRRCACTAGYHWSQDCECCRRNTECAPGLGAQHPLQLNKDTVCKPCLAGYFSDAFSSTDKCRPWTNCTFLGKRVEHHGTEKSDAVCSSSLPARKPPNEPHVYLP
As to the kind of experiment: SPR. In general terms: SPR reads the build-up and loss of mass on a sensor chip optically.

B1: human receptor activator of nuclear factor-κB ligand (RANKL) (ligand, UniProt O14788 140-317, looked up)
chain: IRAEKAMVDGSWLDLAKRSKLEAQPFAHLTINATDIPSGSHKVSLSSWYHDRGWAKISNMTFSNGKLIVNQDGFYYLYANICFRHHETSGDLATEYLQLMVYVTKTSIKIPSSHTLMKGGSTKYWSGNSEFHFYSINVGGFFKLRSGEEISIEVSNPSLLDPDQDATYFGAFKVRDID
B1: the binding result is “binds”.

Source of the values: publication PMC8484898 (Bioactive Materials, 2021).
